Molecular target: hen egg lysozyme (hen) (UniProt P00698)
Experiment: ELISA on coated HEL (3 mg/ml); detection via the myc tag with 9e10 and anti mouse IgG-HRP

Sequence of hen egg lysozyme (hen) (P00698 19-147): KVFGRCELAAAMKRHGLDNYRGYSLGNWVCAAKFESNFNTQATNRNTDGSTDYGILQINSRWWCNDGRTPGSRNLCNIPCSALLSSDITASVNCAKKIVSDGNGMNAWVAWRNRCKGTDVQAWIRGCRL

ELISA signal (background): 0.069
B1: VHCκ chain expressed alone (TAR2-5-Cκ) (protein, not shown: small tags and cut ends)
chain: EVQLLESGGGLVQPGGSLRLSCAASGFTFDLYNMFWVRQAPGKGLEWVSFISQTGRLTWYADSVKGRFTISRDNSKNTLYLQMNSLRAEDTAVYYCAKTLEDFDYWGQGTLVTVSS
